# Experimental data as given in the nanobody polyreactivity screen of Harvey et al. (2022).
# Assay: yeast display, Sf9 membrane polyspecificity reagent, FACS + sequencing; frameworks hold sequencing errors
# Summary of the method: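 Galactose induction of a Saccharomyces cerevisiae BJ5465 synthetic nanobody display library ran 36–48 hours. The cells were then stained for 1 hour at 4 °C with 10% biotinylated, detergent-solubilized Sf9 membrane reagent, pulled down on streptavidin microbeads and FACS-sorted into low and high (top ~1%) gates on expression and reagent-binding fluorescence. Labels for polyreactivity follow the gate of origin.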
row,Sequence,polyreactivity (PSR sort gate)
1,QVQIVESGGGLVQAGGSLRLSSAASGITFRHYAMGWYRQAPGKERELVAAITSRGGSTYYADSVKGRFTISRDNAKNTVYLQMNSLKPEDTAVYYCAKGTVHSRPDFGRGWYRWDDYWGQGSQVTVSS,high polyreactivity
2,QVQIVESGGGLVQAGGSLRLSSASSGRTLRQYAMGWYRPAHWKERDLVAAIRTNGGRTYYADSVMRRFTISRVNSKNTVYLQMNSLKPEDTAVYYCAVYAVVLGVLFDYWGQGTQVTVSS,high polyreactivity
3,QVQIVESGGGLVQAGGSLRLTCAASGGIFARYTMGWYRQAPGKERELVATITSGGGTNYADSVKGRFTISRDNAKNTVYLQMISLKPEDTAVYYCAASPRAVSYGPDDRQQYDYWGQGSQVTVSS,low polyreactivity
4,QVQIVESGGGLVQAGGSLRVSCAASGITFGNYDMGWYRQAPGKERELVAAITGSGGRTYYADSVKGRFTISRDNEKNTVYLQMNSLKPEDTAVYYCNRRQYGRKKQYDYWGQGTQVTVSS,high polyreactivity
5,QVQIVESGGGLVQAGGSLSLSCAASGRTISWYTMGWYRQAPGKERELVAGISSSGGSTYYADSVKGRFTISRDNAKNTVYLQLNSLKPEDTADYFCAAGDFRYVDRYGDMEYWGQGTQVTVSS,low polyreactivity
6,QVQIVESGGGLVQAGGSLSLTCAASGSIITSNDMGWYRQAPGKERELVAAISKSGGRTYYAYSVKGRFTISRENEKNTDYLQMNCLKQEYTAVYYCHAGIYGYGYNPSYDYWGQGTQVTLSS,high polyreactivity
7,QVQIVESGGGLVQARGSLRLSCAAYGRIIYRYAMGWYRQAPGKERELVAAISASGRTYYADSVKGRFTISRDNAKNTVYLQMNSLKPADTAVYYCAKVAAGSLGSWGQGTQVTVSS,high polyreactivity
8,QVQIVESGGGLVQAVGSLRLSCAASGFIFMANAMGWYRQAPGKERELVAAITTGGRTNYADSVKGRFTISRDNAKNTVYLQMNSLKPEDTAVYYCAARYINGWVRSFYYWGQGTQVNVSS,high polyreactivity
9,QVQIVESGGGLVQAVGSLRLSCAASGRIFHYNSMRWYRQAPGKERELVAAITDSTGGSTYYADSVKGRFTISRDNAKNTVYLQMNSLKPEDTAVYYFAAQDYQYSDYQWWFGYWGQGTKVTVSS,low polyreactivity
10,QVQIVESGGRIVQAGGSLRLSCAASGSTFGWYTMGWYRQSPGKESELVATISWRGGTTYYADSVKGRFTISRDNAKNTVYLQMNSLKPEDTAVYYCAARRYRASSRGYGYWGQGTQVTVSS,high polyreactivity
11,QVQIVESGGVLDQAGGSLRLSCAATGSTFAKNAMGWYRQAPGKERELVAAITSGGSTYYADSVKGRFTISRDNAKNTVYLQMYSLKPEDTAVYYCAVDYPWDIFIYWVQNYDHWGHGTQVTVSS,high polyreactivity
12,QVQIVESGGVLVQAGGSLRLSCAASGFNYTNYAMGWYIQSPGKERELVAAITYSGGSKYYADSVKGRFTISRDIAKNTVYLQMNSLKPEDTAVFFCNKYPSFYGAGYYWGQGTQVTVSS,high polyreactivity
13,QVQIVESGGVLVQAGGSLRLSCAASGITLRVYVMGWYRQAPGKERELVAAITSRGDRTYYADSVKGRSTISRDNAKNTVYLQMNSLKPEDTAVYDCAARYYSYPPGLSQTRLTYYYWGQGTQVTVSS,high polyreactivity
14,QVQIVESGVGLVQAGGSLRLSCAASGRIVSSKVMGLYRQAAGKERELVAAITSGGSTYYADSVKGRFTISRDNAKNTVYLQMNSLKPEDTAVYYCAASYWVLRYRYDYWGQGTQVTVSS,high polyreactivity
15,QVQIVESRGGLVQAGGSLRLSCAASGFIIYKYALGWYRQAPRKERELVAAISSSGGNTYYADSVKGRFTNSRDNAKNTVFLQMMSLKPEDTAVYYCAADYYVSKSRYYSYGYWGQGTQVTVSS,high polyreactivity
16,QVQIVESRGGLVQAGVSLRLSCAASGRIFAKNVMGWYRQAPGKDRELVAAISRSGGSTYYADSVKGRFTISRDNAKNTVYLQMNSLKPEDTAVYYCAATPAYGRRWSRYGYWGQGTQVNVSS,high polyreactivity
17,QVQIVESVGGLVQAGGSLRLSCAASGSTVERYAMGWYRKAPGKERELVARITWSGGSTYYADSVKGRFTISLDNAKNTVYVQMNSLKPEDTAVYYCNRDTRYPGYWRVFAKNNYWGQGTQVTVSS,high polyreactivity
18,QVQLAESGGGLVQAGGSLRLSCAASGSTSAKNVMGWYRQPPGTERELVAAISRSGGRTYYADSVKGRFTISRDNAKNTVYLQMNSLKPVDTAVYYCYTRYVKGFYWGQGTLVTVSS,high polyreactivity
19,QVQLDESGGGLVQAGGSLRLSCADSGRIFDRNALGWYRQAPGKESELVAAISSRGTSTYYADSVKGRFTISRDNAKNTVYLQMNSLKPEDTAVYYCAARPRYASDEFGYWGQGTQVTVSS,low polyreactivity
20,QVQLEDSGGGLVQAGGSLPLSCAASGLTFYVNARGWNRQAPGKERELVAGIDSGGSTYYAASVKGRFTISRDNAKNTVYLQMNSLKPEDTAVYYCAADEGYVWPYYGWGFGKYDYWGEGTQVTVSS,low polyreactivity
21,QVQLEDSGGGLVQAGGSLRLSCAASGFIFGLNAMGWNRQAPGKERELVAAIRSASSTNYADSVKGRFTISRDNAKNTVYLQMNSLKPEDTAVYYCAAEYVTYQHGFWGYDYWGQGTQVTVSS,low polyreactivity
22,QVQLEDSGGGLVQAGGSLRLSCAASGLNLYRYAMGVYRQEPGKEREFVASISWSGGSTYYADSVKGRFTISRDNAKNTVYLQMNSLKPEDTAVYYCATDSDTSQLGYDYWGQGTQVTVAS,low polyreactivity

row,Sequence,polyreactivity (PSR sort gate)
1,QVQLEDSGGGLVQAGGSLRLSCAASGRTFHRNAMGWYRQAPGKERELVAAITGSGGSTYYADSVKGRFTISRDNAKNTVYLQMNSLKPEDTAVYYCATYSYPERTGGQRTHYYWGQGTQVTVSS,high polyreactivity
2,QVQLEDSGGGLVQAGGSLRLSCAASGSTFNQYAMGWYRQATGKERELVAAITTSGARTYYADSVKGRFTISRDNAKNTVYLQMNSLKPEDTAVYYCNAGYFSYRYRYGYDYWGLGTQVTVSS,high polyreactivity
3,QVQLEDSGGGLVQAGGSLRLSCAASGSTFRYYTMGWYRQAPGKEREFVASIRTSGGSTYADSVKGRFTISRDNAKNTVYLQMNSLKPEDTAVYYCAARGGYRYTRYDYWGQGTQVTVSS,high polyreactivity
4,QVQLEDSGGGLVQAGGSLRLSCAASGSTWVYAMGWYRQAPGTERELVASITVSGGSTYYADSVKGRFTISRDNAKNTVYLQMNSLKPEDTAVYYCAAYDSYRKFKYWRQGTQVTVSS,high polyreactivity
5,QVQLEDSGGGLVQAGGTLRLSCAASGIIFAYNYMGWNRHATRKERELVATISSAGNTNYADSVKGRFTISRDNAKNTVYLQMNSLKPEETAVYYCAAEFFIVVTDEYDYWGQGTQVTVSS,low polyreactivity
6,QVQLEDSGRGLFQAGGSLRLSCAASGSNFAHYAMGWYIQAQGKERELVARFSWSGGSTYYADSVKGRFTISRDNAKNTVYLQMNSLKPEDTAVYYCAADHLYWGLEYEPWGQGTQVTVSS,low polyreactivity
7,QVQLEESAGGLVQAGGSLRLSCAASGSIFFWNDLGWYRQAPGKERELVAAISWSGGSTSYADSVKGRFTISRDNAKNTVYLQMNSLKPEDTAVYYCAADFYYRTLYGYIGMDYWGQGTQVTVSS,low polyreactivity
8,QVQLEESAGGLVQAGGSLSLICAASGTIVSYAMGWYRQAPGKQRELVAAISRSGGSTYYADSVKGRFTIARDNEKNTVYLQMNSLKPEDTAVYYCAARWRYLTLYAGFNYWGQGTQVTVSS,high polyreactivity
9,QVQLEESGAGLVQAGGSLRLSCAPSGIIYDGNAMGWYRKAPGKERELLASITSDSSTNYADSVKGRFTISRDNAKYTVYLHMNSLKPQDTAVYYCAADHWIAPRRDYWGQGTQVTVSS,low polyreactivity
10,QVQLEESGAGVVQAGGSLRLSCAASGRTFQYNAMGWYRPAPGTERELVAAISSSGGSTYYADSVKGRFTISRDNAKNTVYFQMNSLNPEDTAVYYCNAYSQSWNFYGVGDYWGQGTQVTVSS,low polyreactivity
11,QVQLEESGGALVQAGGSLRLSCAASGFIFTLYAMGWYRQAPGKEREFVAAISWSDGSTTYADSVKGRFTISRDNAKNTVYLQMNSLNPEDTAVYYCAAVTSSYIRGLVYHFYYWGQGTQVTVSS,low polyreactivity
12,QVQLEESGGALVQAGGSLRLSCAASGNTFGPKAMGWYRQAPGKERELVASINIGGRTNYADSVKGRFTISRDNAKNSVYLQLKSLKPEDTAVYYCNAGSGVQVVWYNAYREYEYWGQGTQVTVSS,low polyreactivity
13,QVQLEESGGCLDQAAGSLRLTCADSGFIFLPNAMGWYRQAPGKERELVADITYDGGTTYYADSVKGRFTISRDNAKNTVYLQKNSLKPEDTAVYYCNAETYEFHRSRGDYDYWGQGTQVTVSS,low polyreactivity
14,QVQLEESGGGIVQAGGSLRLSCAASGRTFGANAMGWYRQAPGKERELVAAISSSDDSTYYADSVKGRFTISRDNAKNTVYLQMNSLKPEDTAVYYCAAEDVYPQLDYWGQGTQVTVSS,low polyreactivity
15,QVQLEESGGGLDQAGGILRLSFAASGSTIGGYAMGWYSQATGNERELVAAITRSGGRTYYADSVKGRFTISRDNGKNTVYLQMNSLKPEDTAVYYCATLVTNGRYDSWGQGTQVTVSS,high polyreactivity
16,QVQLEESGGGLDQAGGSLRLSCAASARTFDGYAMGWYRQAPGKERELVAAISSGDSTYYADSVKGRFTISRDKAKNTVYLQMNSLKPEDTAVYYCAASFYYSSYGYWGQGTQVTVSS,low polyreactivity
17,QVQLEESGGGLDQAGGSLRLTCAASGSTFLFYAMGWYRQAPGKESELVAAIRWSGGSTYADSVKGRFTISRDNAKYTVYLPMNSLKPEDTAVYYCATTYRPTFRRHYKYWGQGTQVTVSS,low polyreactivity
18,QVQLEESGGGLFQAGGSLRLSCAASGSTFYAYAMGWYRQAPGKERELVAAISSDGTNYADSVKGRFTISRDNAKNTVYLQMNSLKPEDTAVYYCAADMLLYSSQDNDYWGQGTLVTVSS,low polyreactivity
19,QVQLEESGGGLFQAGGSLRLSCAASVSSYRSYARGWYRTATGKERELVAAISVSGGSTYYADSVKGRFTISRDNAKNTVFLQMNSLKPEDTAVYYCAASYVPSYAPGRYYYWGQGTQVTVSS,high polyreactivity
20,QVQLEESGGGLLQAGGSLRLSCAASGRTLGGYTMGWYRPAPGKERELVSAITTGGSTNYADSVKGRFTISRDNAKNTVYLQMNSLKPEDTAVYFCATELVFDKRYWYDYWGQGSQVTVSS,low polyreactivity
21,QVQLEESGGGLMQAGGNLRLSCAASGYISTHYDMDWYRQAPGRERELVARIDDGAITNYADSVKGRFTISRDNATNTVYLQMNSLKPEDTAVYYCAVYSGDDYYHDYWGQGTQVTVSS,low polyreactivity
